Where a chain is given by its changes, count along the chain named.
T1: recombinant soluble human TL1A (human, UniProt O95150 71-251)
T1 sequence: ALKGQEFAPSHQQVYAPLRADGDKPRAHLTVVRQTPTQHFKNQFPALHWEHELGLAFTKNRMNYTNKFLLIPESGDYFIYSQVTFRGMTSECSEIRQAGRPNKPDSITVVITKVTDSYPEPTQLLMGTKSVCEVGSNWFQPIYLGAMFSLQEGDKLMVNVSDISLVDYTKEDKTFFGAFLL

T2: recombinant soluble cynomolgus monkey TL1A (cynomolgus monkey, UniProt O95150 72-251 (human entry))
T2 construct: also called cyno rsTL1A; cyno TL1A
T2 chain: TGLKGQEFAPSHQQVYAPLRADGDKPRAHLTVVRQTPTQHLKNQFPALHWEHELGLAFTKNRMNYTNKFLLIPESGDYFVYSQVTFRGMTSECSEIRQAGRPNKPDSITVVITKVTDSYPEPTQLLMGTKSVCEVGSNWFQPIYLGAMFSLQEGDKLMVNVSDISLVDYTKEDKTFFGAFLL

T3: recombinant soluble murine TL1A (mouse, UniProt Q5UBV8 75-252)
T3 construct: also called murine rsTL1A; mouse TL1A
T3 chain: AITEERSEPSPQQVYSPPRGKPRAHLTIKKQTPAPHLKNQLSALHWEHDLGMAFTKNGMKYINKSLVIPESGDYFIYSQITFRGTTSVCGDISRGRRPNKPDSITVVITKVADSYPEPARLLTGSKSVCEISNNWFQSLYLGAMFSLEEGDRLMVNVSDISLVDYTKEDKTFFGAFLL

T4: recombinant soluble rat TL1A (rat, UniProt Q8K3Y7 76-252)
T4 construct: also called rat rsTL1A
T4 sequence: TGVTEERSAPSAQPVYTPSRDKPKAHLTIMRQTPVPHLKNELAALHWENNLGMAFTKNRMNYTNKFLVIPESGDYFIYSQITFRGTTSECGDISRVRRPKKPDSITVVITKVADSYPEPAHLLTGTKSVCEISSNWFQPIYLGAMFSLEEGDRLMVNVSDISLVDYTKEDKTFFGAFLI

B1: 1D1 1.28 (antibody, human IgG1, kappa, V domains shown)
VH: QVQLVQSGAEVKKPGASVKVSCKASGYDFTYYGISWVRQAPGQGLEWMGWISTYNGNKHYARMLQGRVTMTTDTSTRTAYMELRSLRSDDTAVYYCARENYYGSGSYRGGMDVWGQGTTVTVSS
VL: EIVLTQSPATLSLSPGERATLSCRASQSVSSYLAWYQQKPGQAPRLLIYDASNRATGIPARFSGSGSGTDFTLTISSLEPEDFAVYYCQQRSNWPWTFGQGTKVEIKR
notes: Expressed as IgG1; also called 1D1 1.28-hIgG1-3m
B2: 1D1 1.34 (antibody, human IgG1, kappa, V domains shown)
VH: B1 VH with N57K, K58T, L64H, S106A, V113A
VL: B1 VL
notes: Expressed as IgG1
B3: 1D1 1.32 (antibody, human IgG1, kappa, V domains shown)
VH: B1 VH with N57G, K58T, S106A, V113A
VL: B1 VL
notes: Expressed as IgG1
B4: 1D1 1.30 (antibody, human IgG1, kappa, V domains shown)
VH: B1 VH with N57V, K58T
VL: B1 VL
notes: Expressed as IgG1; also called 1D1 1.30-hIgG1-3m
B5: 1D1 1.33 (antibody, human IgG1, kappa, V domains shown)
VH: B1 VH with N57V, K58T, S106A, V113A
VL: B1 VL
notes: Expressed as IgG1; also called 1D1 1.33-hIgG1-3m
B6: 1D1 1.29 (antibody, human IgG1, kappa, V domains shown)
VH: B1 VH with N57G, K58T
VL: B1 VL
notes: Expressed as IgG1
B7: 1D1 Fab (Fab, V domains shown)
VH: B1 VH with D28S, K58T, H59N
VL: B1 VL
notes: Made from 1D1 IgG by papain; also called Fab of 1D1
B8: anti-TL1A antibody 7D4 (antibody, human IgG1, kappa, V domains shown)
VH: QVQLVQSGAEVKKPGASVKVSCKASGYTFTSYGINWVRQAPGQGLEWMGWISTYNGNTNSAQKLQGRVTMTTDTSTSTAYMELRSLRSDDTAVYYCARAHSSSWFDAFDIWGQGTMVTVSS
VL: AIQLTQSPSSLSASVGDRVTITCRASQGISSALAWYQQKPGKAPKLLIYDASSLESGVPSRFSGSGSGTDFTLTISSLQPEDFATYYCQQFNSYPLTFGGGTKVEIKR
notes: Human IgG1-3m, kappa; also called 7D4-hIgG1-3m
B9: anti-TL1A antibody 26B11 (antibody, V domains shown)
VH: QVQLVESGGGVVQPGRSLRLSCAASGFTFSSFAMHWVRQAPGKGLEWVALIPFDGSSNYYADSVKGRFTISRDNSKNTLYLQMNSLRAEDTAVYYCARDRNYYGSGSFSFDAFDIWGQGTLVTVSS
VL: DIQMTQSPSSLSASVGDRVTITCRASQGISNWLAWYQQKPEKAPKSLIYAASSLQSGVPSRFSGSGSGTDFTLTISSLQPEDFATYYCQQYNSYPYTFGQGTKLEIKR
notes: also called 26B11-hIgG1-3m
B10: 1D1 D18 (antibody, V domains shown)
VH: B1 VH with D28S, K58T
VL: B1 VL
notes: IgG with triple mutant Fc as for 1D1 D37
B11: 1D1 D29 (antibody, V domains shown)
VH: B1 VH with D28S, T53S, K58T
VL: B1 VL
notes: as for B10
B12: 1D1 D21 (antibody, V domains shown)
VH: B1 VH with D28S, N57K, K58T
VL: B1 VL
notes: as for B10
B13: 1D1 DH8 (antibody, V domains shown)
VH: B1 VH with D28S, T53A, K58T
VL: B1 VL
notes: as for B10
B14: 1D1 D25 (antibody, V domains shown)
VH: B1 VH with D28S, N57A, K58T
VL: B1 VL
notes: as for B10
B15: 1D1 DH10 (antibody, V domains shown)
VH: B1 VH with D28S, K58T, H59N, S106A
VL: B1 VL
notes: as for B10
B16: 1D1 D31 (antibody, V domains shown)
VH: B1 VH with D28S
VL: B1 VL
notes: as for B10
B17: 1D1 D28 (antibody, V domains shown)
VH: B1 VH with D28S, N57K, K58T, L64H
VL: B1 VL
notes: as for B10
B18: 1D1 D5 (antibody, V domains shown)
VH: B1 VH with D28S, K58T, H59N, S106A, Y107F, V113G
VL: B1 VL
notes: as for B10
B19: 1D1 DH9 (antibody, V domains shown)
VH: B1 VH with D28S, T53P, N57K, K58T
VL: B1 VL
notes: as for B10

Biological target: T1, recombinant soluble human TL1A
Assay: cell-based or functional assay

Row | Caspase Assay, average IC50 [nM] | NFkB Assay, average IC50 [nM] | Binder
1 | 0.0962 | 0.189 | B1
2 | 0.0627 | 0.182 | B2
3 | 0.0615 | 0.18 | B3
4 | 0.103 | 0.37 | B4
5 | 0.146 | 0.2 | B5
6 | 0.085 | 0.281 | B6

Biological target: T1, recombinant soluble human TL1A
Assay: KinExA, equilibrium in solution
Procedure: This assay involves pre-incubating antibody: antigen mixtures in solution long enough to reach equilibrium before measuring the level of unbound antibody using a solid phase component. […] Beads were blocked for 1 hour with PBS plus 10 mg/ml bovine serum albumin (bovine serum albumin, Sigma) at room temperature before being diluted up to a total of 27 ml in PBS. […] For each titration series, a buffer sample and a sample of antibody alone were included. Each antibody: TL1A mixture was tumbled at room temperature for at least six hours to reach equilibrium and then each mixture was injected over the solid phase of TL1A-coated beads in the instrument flow cell. […] Beads were replenished between each sample. Binding signals of detected free antibody were converted to percentage of free, unbound antibody as measured by the antibody only sample and plotted versus each concentration of TL1A. For each antibody, the KD and ABC controlled curves were fit simultaneously using n-Curve Analysis software v3.1.4 to fit the curves to the ‘affinity, unknown ligand’ model and measure an equilibrium KD.
Solution-based kinetic exclusion assays (KinExA) were carried out as an orthogonal technique to measure equilibrium KD values.

Row | Kd [nM] | Binder
7 | 0.00252 | B1
8 | 3 | B7
9 | 0.00116 | B2
10 | 0.00615 | B3
11 | 0.0068 | B4
12 | 0.0106 | B5
13 | 0.0194 | B6

Biological target: T1, recombinant soluble human TL1A
Assay: SPR, IgG captured on anti-hIgG, TL1A injected
Source text: (§1) To characterize the binding kinetics of the anti-TL1A antibodies to TL1A by surface plasmon resonance, each anti-TL1A antibody was captured via directly immobilized anti-human IgG (GE Healthcare) onto a carboxymethylated dextran sensor chip surface (CM5) using a Biacore T100 or T200 instrument. Anti-human IgG was immobilized through amine coupling to densities of approximately 4,000-13,000 response units (RU). […] At the end of each cycle, the entire anti-human IgG (hIgG) surface was regenerated by a 30-second pulse of 3M MgCl₂ followed by two consecutive 15-second pulses of PBS-NET. All injections were performed at 25° C. at a collection rate of 10 Hz. All sensorgrams were double referenced by using both a control surface and buffer injections. Rate constants were determined by fitting the data to a 1:1 model in Biacore T100, T200 evaluation software v1.0, or BIAevaluation software v4.1.1 and the equation KD=kd/kₐ.
(§2) The anti-TL1A antibodies were captured onto immobilized anti-human Fc on a CM5 sensor chip on a Biacore T100 instrument. […] Rate constants shown in the table were determined by fitting to a 1:1 Langmuir binding model in BiaEvaluation v4.1.1 (fit lines shown in red). Data shown are the average and standard deviation of at least 3 independent surfaces between 2 experiments.

Row | Kd [nM] | koff [s⁻¹] | kon [M⁻¹ s⁻¹] | Binder
14 | 0.9 | 0.0004 | 400000 | B8
15 | 0.6 | 0.00011 | 170000 | B9

Biological target: T2, recombinant soluble cynomolgus monkey …
Assay: SPR, IgG captured on anti-hIgG, TL1A injected
Source text: as §1, §2

Row | Kd [nM] | koff [s⁻¹] | kon [M⁻¹ s⁻¹] | Binder
16 | 6.9 | 0.0014 | 200000 | B8
17 | 36 | 0.006 | 200000 | B9

Biological target: T1, recombinant soluble human TL1A
Assay: SPR, IgG captured on anti-hIgG, TL1A injected
Remark: another data set of the same source
Procedure: Biacore analysis was performed using T-200 biosensor, series S CM5 chips and approximately 4000 RU (response units) of an anti-human IgG (GE Healthcare), immobilized in 10 mM sodium acetate immobilization buffer at pH 5.0. Assay conditions were established to minimize the influence of mass transfer, avidity, and rebinding events, as described below. A blank immobilization was carried out on a separate flow cell for reference subtraction. The purified IgGs were diluted in running buffer (PBS, 300 mM sodium chloride, 3.2 mM ethylenediaminetetraacetic acid, 0.01% Tween20) and low levels (<30 RU) captured using a flow rate of 100 μl/min for 2 min, to reduce possible rebinding by the trimeric TL1A. […] Reference-subtracted sensorgrams for each concentration were analyzed using Biacore T-200 evaluation software (v1.0).

Row | Kd [nM] | koff [s⁻¹] | kon [M⁻¹ s⁻¹] | Binder
18 | 0.662 | 0.000473 | 717000 | B10
19 | 0.705 | 0.000712 | 1.01e+06 | B11
20 | 0.709 | 0.00052 | 745000 | B12
21 | 0.924 | 0.000896 | 977000 | B13
22 | 0.453 | 0.000387 | 868000 | B14
23 | 0.589 | 0.0005 | 853000 | B15
24 | 0.518 | 0.00042 | 822000 | B16
25 | 0.527 | 0.000568 | 1.09e+06 | B17
26 | 0.625 | 0.000478 | 776000 | B18
27 | 0.84 | 0.000866 | 1.04e+06 | B19

Biological target: T2, recombinant soluble cynomolgus monkey …
Assay: SPR, IgG captured on anti-hIgG, TL1A injected
Remark: another data set of the same source
Source text: (§3) The antibodies were captured via directly immobilized anti-human IgG (GE Healthcare) onto a carboxymethylated dextran sensor chip surface (CM5) using a Biacore T100 or T200 instrument. Anti-human IgG was immobilized through amine coupling to densities of approximately 4,000-13,000 response units (RU). […] At the end of each cycle, the entire anti-hIgG surface was regenerated by a 30-second pulse of 3M MgCl₂ followed by two consecutive 15-second pulses of PBS-NET. […] All injections were performed at 25° C. at a collection rate of 10 Hz. All sensorgrams were double referenced by using both a control surface and buffer injections. Rate constants were determined by fitting the data to a 1:1 model in Biacore T100, T200 evaluation software v1.0, or BIAevaluation software v4.1.1 and the equation KD=Kd/kₐ.
(§4) At the highest cytokine concentrations, the dissociation phase was sometimes extended to 60 minutes to achieve at least a 5% decrease in binding signal.

Row | Kd [nM] | koff [s⁻¹] | kon [M⁻¹ s⁻¹] | t1/2 [min] | Binder
28 | 0.144 | 5.4e-05 | 380000 | 215 | B1
29 | 0.083 | 3.6e-05 | 440000 | 323 | B2
30 | 0.066 | 2.9e-05 | 460000 | 398 | B3
31 | 0.142 | 6e-05 | 410000 | 199 | B4
32 | 0.107 | 3.7e-05 | 360000 | 309 | B5
33 | 0.092 | 4.5e-05 | 490000 | 259 | B6

Biological target: T3, recombinant soluble murine TL1A
Assay: SPR, IgG captured on anti-hIgG, TL1A injected
Source text: as §3, §4

Row | Kd [nM] | koff [s⁻¹] | kon [M⁻¹ s⁻¹] | t1/2 [min] | Binder
34 | ~1.53 | 0.00032 | 210000 | 36.1 | B1
35 | 1.11 | 0.00028 | 250000 | 41.8 | B2
36 | 0.906 | 0.00023 | 260000 | 49.5 | B3
37 | 5.25 | 0.0007 | 140000 | 17.9 | B4
38 | 1.91 | 0.00029 | 160000 | 39 | B5
39 | 2.86 | 0.0007 | 260000 | 15.8 | B6

Biological target: T4, recombinant soluble rat TL1A
Assay: SPR, IgG captured on anti-hIgG, TL1A injected
Source text: as §3, §4

Row | Kd [nM] | koff [s⁻¹] | kon [M⁻¹ s⁻¹] | t1/2 [min] | Binder
40 | 5.92 | 0.0024 | 410000 | 4.77 | B2
41 | 5.02 | 0.0029 | 580000 | 3.95 | B3
42 | 41.9 | 0.0098 | 240000 | 1.18 | B4

Biological target: T1, recombinant soluble human TL1A
Assay: SPR, IgG captured on anti-hIgG, TL1A injected; off rate too slow to measure

Row | Kd [nM] | Binder
43 | < 0.1 | B1
44 | < 0.1 | B2
45 | < 0.1 | B3
46 | < 0.1 | B4
47 | < 0.1 | B5
48 | < 0.1 | B6
